Molecular target: the molecule itself
Assay: SEC; purified tetramers on Superose 6 Increase 10/300 GL, 50 mM Tris, 150 mM NaCl, pH 7.4, 5 mM EDTA, 0.5 ml/min

Protein	stoichiometry N
C1r p.S654A (enzymatically inactive proenzyme C1r 'WT') (enzyme, human, UniProt P00736 18-705, looked up, also called C1r WT with additional p.S654A mutation; source: 293-F cells co-transfected with C1s, purified as part of the tetramer as described (19)) SIPIPQKLFGEVTSPLFPKPYPNNFETTTVITVPTGYRVKLVFQQFDLEPSEGCFYDYVKISADKKSLGRFCGQLGSPLGNPPGKKEFMSQGNKMLLTFHTDFSNEENGTIMFYKGFLAYYQAVDLDECASRSKSGEEDPQPQCQHLCHNYVGGYFCSCRPGYELQEDTHSCQAECSSELYTEASGYISSLEYPRSYPPDLRCNYSIRVERGLTLHLKFLEPFDIDDHQQVHCPYDQLQIYANGKNIGEFCGKQRPPDLDTSSNAVDLLFFTDESGDSRGWKLRYTTEIIKCPQPKTLDEFTIIQNLQPQYQFRDYFIATCKQGYQLIEGNQVLHSFTAVCQDDGTWHRAMPRCKIKDCGQPRNLPNGDFRYTTTMGVNTYKARIQYYCHEPYYKMQTRAGSRESEQGVYTCTAQGIWKNEQKGEKIPRCLPVCGKPVNPVEQRQRIIGGQKAKMGNFPWQVFTNIHGRGGGALLGDRWILTAAHTLYPKEHEAQSNASLDVFLGHTNVEELMKLGNHPIRRVSVHPDYRQDESYNFEGDIALLELENSVTLGPNLLPICLPDNDTFYDLGLMGYVSGFGVMEEKIAHDLRFVRLPVANPQACENWLRGKNRMDVFSQNMFCAGHPSLKQDACQGDAGGVFAVRDPNTDRWVATGIVSWGIGCSRGYGFYTKVLNYVDWIKKEMEEED	2
C1r p.(D290G) with additional p.S654A mutation (enzyme, human, UniProt P00736 18-705, looked up, also called c.869A>G; source: 293-F cells co-transfected with C1s, purified as part of the tetramer as described (19)) SIPIPQKLFGEVTSPLFPKPYPNNFETTTVITVPTGYRVKLVFQQFDLEPSEGCFYDYVKISADKKSLGRFCGQLGSPLGNPPGKKEFMSQGNKMLLTFHTDFSNEENGTIMFYKGFLAYYQAVDLDECASRSKSGEEDPQPQCQHLCHNYVGGYFCSCRPGYELQEDTHSCQAECSSELYTEASGYISSLEYPRSYPPDLRCNYSIRVERGLTLHLKFLEPFDIDDHQQVHCPYDQLQIYANGKNIGEFCGKQRPPDLDTSSNAVDLLFFTGESGDSRGWKLRYTTEIIKCPQPKTLDEFTIIQNLQPQYQFRDYFIATCKQGYQLIEGNQVLHSFTAVCQDDGTWHRAMPRCKIKDCGQPRNLPNGDFRYTTTMGVNTYKARIQYYCHEPYYKMQTRAGSRESEQGVYTCTAQGIWKNEQKGEKIPRCLPVCGKPVNPVEQRQRIIGGQKAKMGNFPWQVFTNIHGRGGGALLGDRWILTAAHTLYPKEHEAQSNASLDVFLGHTNVEELMKLGNHPIRRVSVHPDYRQDESYNFEGDIALLELENSVTLGPNLLPICLPDNDTFYDLGLMGYVSGFGVMEEKIAHDLRFVRLPVANPQACENWLRGKNRMDVFSQNMFCAGHPSLKQDACQGDAGGVFAVRDPNTDRWVATGIVSWGIGCSRGYGFYTKVLNYVDWIKKEMEEED	2

From paper PMC6848165, “C1R Mutations Trigger Constitutive Complement 1 Activation in Periodontal Ehlers-Danlos Syndrome” (Frontiers in Immunology, 2019)
